In patent US20160075790A1 (Bristol-Myers Squibb, published 2016):
Values joined by “and” are separate entries in the source; they are usually repeats but may differ in a detail not shown here. Identical values can stand only once.

T1: human isoleucine zipper-CD40L (IZ-hCD40L) (human, UniProt P29965 113-261)
T1 sequence: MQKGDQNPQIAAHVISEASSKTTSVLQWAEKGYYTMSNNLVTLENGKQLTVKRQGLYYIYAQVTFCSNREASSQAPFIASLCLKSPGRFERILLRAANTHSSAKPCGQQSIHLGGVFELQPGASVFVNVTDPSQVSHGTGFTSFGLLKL


Target: T1, human isoleucine zipper-CD40L …
Experiment: cell-based or functional assay

Row | Binder | hIZCD40L-driven Human B Cell Proliferation EC50
1 | BMS2h-712 (other) VH: EVQLLESGGGLVQPGGSLRLSCAASGFTFPEYEMKWVRQAPGKGLEWVSTITPSGGHTYYADSVKGRFTISRDNSKNTLYLQMNSLRAEDAAVYYCAIPLSSFDYWGRGTLVTVSS | > 7000 nM
2 | BMS2h-717 (other) VH: EVQLLESGGGLVQPGGSLRLSCAASGFTFSSYEMAWVRQAPGKGLEWVSRIEPDGSNTYYADSVKGRFTISRDNSKNTLYLQMNSLRAEDTAVYYCAKGPDNFTMFDYWGQGTLVTVSS | > 7000 nM
3 | BMS2h-572-12 (other) VH: EVQLLESGGGLVQPGGSLRLSCAASGFTFNWQLMGWARQAPGKGLEWVSGIEGPGDVTYYADSVKGRFTISRDNSKNTLYLQMNSLRAEDTAVYYCAKVGKESNSDYRGQGTLVTVSS | 79 nM and 76 nM
4 | BMS2h-572-22 (other) VH: EVQLFESGGGSVQPGGSLRLSCAASGFTFNWQLMGWVRQAPGKGLEWVSGIEGPGDVTYYADSVKGRFTISRDNSKNTLYLQMNSLRAEDTAVYYCAKVGKESNSDYRGQGTLVTVSS | 357 nM and 305 nM
5 | BMS2h-723 (other) VH: EVQLLESGGGLVQPGGSLRLSCAASGFTFDLYDMMWVRQAPGKGLEWVSSISDLGTLTYYADSVKGRFTISRDNSKNTLYLQMNSLRAEDTAVYYCAKNGFRVTSNDRRFDYWGQGTLVTVSS | > 7000 nM
6 | BMS2h-725 (other) VH: EVQLLESGGGLVQPGGSLRLSCAASGFTFSAYTMGWVRQAPGKGLEWVSLIGDRGSWTYYADSVKGRFTISRDNSKNTLYLQMNSLRAEDTAVYYCAEPSDPTKFDYWGQGTLVTVSS | 6400 nM
7 | BMS2h-725-9 (other) VH: EVQLLESGGGLVQPGGSLRLSCAASGFTFSAYTMGWVRQAPGMGLEWVSLIGDRGSWTYYADSVKGRFTISRDNSKNTLYLQMNSLRAEDTAVYYCAEPSDPTKFDYWGQGTLVTVSS | > 7000 nM
8 | BMS2h-725-19 (other) VH: EVQLLESGGGLVQPGGSLRLSCAASGFTFSAYTMGWVRQAPGKGLEWVSLIGDRGSWTYYADSVKGRFTISRDNSKNTLYLQMNSLRAEDTAVYYCADPSDPTKFVYWGQGTLVTVSS | > 7000 nM
9 | BMS2h-725-2 (other) VH: EVQLLESGGGLVQPGGSLRLSCAASGFTFSAYTMGWVRQAPGKGLEWVSLIGDRGSWTYYADSVKGRFTISRDNSKNTLYLQMNSLRAEDTAVYYCAEPSDPTKFVYWGQGTPVTVSS | > 7000 nM
10 | BMS2h-726 (other) VH: EVQLLESGGGLVQPGGSLRLSCAASGFTFDNYKMYWVRQAPGKGLEWVSSISEIGNLTYYADSVKGRFTISRDNSKNTLYLQMNSLRAEDTAVYYCAIALTRFDYWGQGTLVTVSS | > 7000 nM
11 | BMS2h-707 (other) VH: EVQLLESGGGLVQPGGSLRLSCAASGFTFETYRMSWVRQAPGKGLEWVSAIDQEGSATYYADSVKGRFTISRDNSKNTLYLQMNSLRAEDTAVYYCAKNSGTRPGLRFDYWGQGTLVTVSS | > 7000 nM
12 | BMS2h-702 (other) VH: EVQLLESGGGLVQPGGSLRLSCAASGFTFAEYEMMWARQAPGKGLEWVSRIAGNGSRTYYADSVKGRFTISRDNSKNTLYLQMNSLRAEDTAVYYCAIMLSHFDYWGQGTLVTVSS | > 7000 nM
13 | BMS2h-710 (other) VH: EVQLLESGGGLVQPGGSLRLSCAASGFTFNTYSMSWVRQAPGKGLEWVSWIDADGWVTYYADSVKGRFTISRDNSKNTLYLQMNSLRAEDTAVYYCAQTGHTFDYWGQGTLVTVSS | > 7000 nM
14 | BMS2h-745 (other) VH: EVQLLESGGGLVQPGGSLRLSCAASGFTFDNTEMAWVRQAPGKGLEWVSGIIEDGNRTYYADSVKGRFTISRDNSKNTLYLQMNSLRAEDTAVYYCAKIRNLHWDVGRQFDYWGQGTLVTVSS | 6400 nM and 3500 nM and > 7000 nM
15 | BMS2h-745-14 (other) VH: EVQLLESGGGLVQPGGSLRLSCAASGFTFDNTEMAWIRQAPGKGLEWVSGITEDGNRTYYADSVKGRFTISRDNSKNTLYLQMNSLRAEDTAVYYCAKIRNLHWDVGRQFDYWGQGTLVTVSS | > 7000 nM
16 | BMS2h-745-9 (other) VH: EVQLLESGGGSVQPGGSLRLSCAASGFTFDNTEMAWVRQAPGKGLEWVSGITEDGNRTYYADSVKGRFTISRDNSKNTLYLQMNSLRAEDTAVYYCAKIRNLHWDVGRQFVYWGQGTLVTVSS | > 7000 nM

Row | Binder | hIZCD40L-driven Human B Cell Proliferation EC50
17 | BMS2h-745-13 (other) VH: EVQLLESGGGLVQPGGSLRLSCAASGFTFDNTEMAWIRQAPGKGLEWVSGIIEDGNRTYYADSVKGRFTISRDNSKNTLYLQMNSLRAEDTAVYYCAKIRNLHWDVGRQFDYWGQGTLVTVSS | > 7000 nM
18 | BMS2h-745-1 (other) VH: EVQLLESGGGLVQPGGSLRLSCAASGFTFDNTEMAWVRQAPGKGLEWVSGITEDGNRTYYADSVKGRFTISRDNSKNTLYLQMNSLRAEDTAVYYCAKIRNLHWDVGRQFDYWGQGTLVTVSS | > 7000 nM
19 | BMS2h-745-2 (other) VH: EVQLLESGGGLVQPGGSLRLSCAASGFTFDNTEMAWVRQAPGKGLEWVSGISEDGNRTYYADSVKGRFTISRDNSKNTLYLQMNSLRAEDSAVYYCAKIRNLHWDVGRQFVYWGQGTLVTVSS | > 7000 nM
20 | BMS2h-746 (other) VH: EVQLLESGGGLVQPGGSLRLSCAASGFTFGSAEMGWVRQAPGKGLEWVSGISRPGQVTYYADSVKGRFTISRDNSKNTLYLQMNSLRAEDTAVYYCAKIRNLHWDVGRQFDYWGQGTLVTVSS | > 7000 nM
21 | BMS2h-731 (other) VL: DIQMTQSPPSLSASVGDRVTITCRASQLISSHLDWYQQKPGKAPKLLVYDASELQSGVPSRFSGSGSGTDFTLTISSLQPEDFATYYCQQHRSLPFTFGQGTKVEIKR | 5800 nM
22 | BMS2h-744 (other) VH: EVQLLESGGGLVQPGGSLRLSCAASGFTFKEHDMFWVRQAPGKGLEWVSGIGAEGVWTYYADSVKGRFTISRDNSKNTLYLQMNSLRAEDTAVYYCAEPTMSNGSQSRFDYWGQGTLVTVSS | > 7000 nM
23 | BMS2h-703 (other) VH: EVQLLESGGGLVQPGGSLRLSCAASGFTFYNYDMSWVRQAPGKGLEWVSGIDSMGLVTYYADSVKGRFTISRDNSKNTLYLQMNSLRAEDTAVYYCAKGSNASDWVVFDYWGQGTLVTVSS | > 7000 nM
24 | BMS2h-706 (other) VH: EVQLLESGGGLVQPGGSLRLSCAASGFTFGSYKMLWVRQAPGKGLEWVSSITNSGTETYYADSVKGRFTISRDNSKNTLYLQMNSLRAEDTAVYYCAKSMYPDLEIVHFDYWGQGTLVTVSS | > 7000 nM
25 | BMS2h-722 (other) VH: EVQLLESGGGLVQPGGSLRLSCAASGFTFTKYPMAWVRQAPGKGLEWVSGIDANGNRTYYADSVKGRFTISRDNSKNTLYLQMNSLRAEDTAVYYCAEGTWRRHFAIFDYWGQGTLVTVSS | > 7000 nM
26 | BMS2h-719 (other) VH: EVQLLESGGGLVQPGGSLRLSCAASGFTFKRYEMTWVRQAPGKGLEWVSSISSDGSFTYYADSVKGRFTISRDNSKNTLYLQMNSLRAEDTAVYYCAEPFTEFDYWGQGTLVTVSS | 600 nM
27 | BMS2h-719-213 (other) VH: EVQLLESGGGLVQPGGSLRLSCAASGFTFKRYEMMWVRQAPGKGLEWVSSISSDGSFTYYADSVKGRFTISRDNSKNTLYLQMNSLRAEDTAVYYCADPFTEMDYWGHGTLVTVSS | 62 nM and 98 nM
28 | BMS2h-719-218 (other) VH: EVQLLESGGGLVQPGGSLRLSCAASGFTFKRYEMMWVRQAPGKGLEWVSSISSDGSFTYYAESVKGRFTISRDNSKNTLYLQMNSLRAEDTAVYYCAEPFTEFDYWGHGTLVTVSS | 57 nM and 60 nM
29 | BMS2h-719-214 (other) VH: EVQLLESGGGLVQPGGSLRLSCAASGFTFKRYEMMWVRQAPGKGLEWVSSISSDGSFTYYADSVKGRFTISRDNSKNTLYLQMNSLRAEDTAVYYCADPFTEFDYWGHGTLVTVSS | 66 nM and 89 nM
30 | BMS2h-719-203 (other) VH: EVQLLESGGGLVQPGGSLRLSCAASGFTFNSYEMMWVRQAPGKGLEWVSSISSDGSFTYYADSVKGRFTISRDNSKNTLYLQMNSLRAEDTAVYYCAEPFTEFDYWGHGTLVTVSS | 81 nM and 96 nM
31 | BMS2h-719-215 (other) VH: EVQLLESGGGLVQPGGSLRLSCAASGFTFKRYEMMWVRQAPGKGLEWVSSISSDGSFTYYADSVKGRFTISRDNSKNTLYLQMNSLRAEDTAVYYCAEPFTELDYWGHGTLVTVSS | 92 nM and 91 nM
32 | BMS2h-730 (other) VL: DIQMTQSPSSLSASVGDRVTITCRASQDIKDWLHWYQQKPGKAPKLLIYFASGLQSGVPSRFSGSGSGTDFTLTISSLQPEDSATYYCQQHYSTPYTSGQGTKVEIKR | > 7000 nM
